Reference: the supplement of paper PMC9112550, “Optimization of the antimicrobial peptide Bac7 by deep mutational scanning” (BMC Biology, 2022)

Test system: Escherichia coli TOP10
Experiment: shrunken log2 fold change of peptide-encoding DNA abundance (4.5 h post-induction vs induction); higher = less antimicrobial activity (less host growth inhibition)
Details: time post-induction: 4.5 h; library: site-saturation at positions 5, 18, 19, 20
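Note: peptides expressed intracellularly from a pBAD plasmid library in pooled LB shake-flask culture, induced with 0.3% L-arabinose, DNA abundance read by NGS, three biological replicates, DESeq2 with apeglm shrinkage.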

| Sequence | shrunken log2 fold change |
| --- | --- |
| RRIRARPPRLPRPRPRPKEEPRP | -0.0728 |
| RRIRMRPPRLPRPRPRPEMTPRP | -0.00169 |
| RRIRNRPPRLPRPRPRPCRQPRP | -0.065 |
| RRIRKRPPRLPRPRPRPIKLPRP | -0.243 |
| RRIRQRPPRLPRPRPRPCYPPRP | -1.5 |
| RRIRNRPPRLPRPRPRPCHGPRP | -0.00208 |
| RRIRGRPPRLPRPRPRPLPVPRP | 0.572 |
| RRIRWRPPRLPRPRPRPSIQPRP | -0.0487 |
| RRIRHRPPRLPRPRPRPWTGPRP | -0.104 |
| RRIRNRPPRLPRPRPRPDCFPRP | -0.306 |
| RRIRMRPPRLPRPRPRPFPQPRP | 0.103 |
| RRIRDRPPRLPRPRPRPGSCPRP | 0.127 |
| RRIRERPPRLPRPRPRPKSSPRP | -0.0505 |
| RRIRHRPPRLPRPRPRPMQQPRP | -0.174 |
| RRIRHRPPRLPRPRPRPQRYPRP | -0.0589 |
| RRIRNRPPRLPRPRPRPYVQPRP | -0.0341 |
| RRIRIRPPRLPRPRPRPQWPPRP | 0.238 |
| RRIRYRPPRLPRPRPRPTIYPRP | -0.939 |
| RRIRNRPPRLPRPRPRPMNRPRP | -0.00285 |
| RRIRFRPPRLPRPRPRPQCPPRP | -0.225 |
| RRIRMRPPRLPRPRPRPKCFPRP | 0.0196 |
| RRIRNRPPRLPRPRPRPWFKPRP | -0.191 |
| RRIRQRPPRLPRPRPRPSKHPRP | -0.641 |
| RRIRCRPPRLPRPRPRPYSVPRP | -0.0508 |
| RRIRMRPPRLPRPRPRPGTLPRP | -0.02 |

| Sequence | shrunken log2 fold change |
| --- | --- |
| RRIRRRPPRLPRPRPRPDSMPRP | -0.251 |
| RRIRLRPPRLPRPRPRPVPAPRP | 0.222 |
| RRIRARPPRLPRPRPRPDTIPRP | 0.103 |
| RRIRYRPPRLPRPRPRPITRPRP | 0.0448 |
| RRIRDRPPRLPRPRPRPASQPRP | 0.0836 |
| RRIRARPPRLPRPRPRPWNYPRP | -0.625 |
| RRIRMRPPRLPRPRPRPVVGPRP | 0.448 |
| RRIRNRPPRLPRPRPRPGPLPRP | 0.0198 |
| RRIRMRPPRLPRPRPRPPNWPRP | 1.03 |
| RRIRSRPPRLPRPRPRPCEAPRP | 0.389 |
| RRIRPRPPRLPRPRPRPSWDPRP | -0.0474 |
| RRIRARPPRLPRPRPRPRWTPRP | 0.145 |
| RRIRRRPPRLPRPRPRPKYIPRP | -0.135 |
| RRIRERPPRLPRPRPRPVQMPRP | -0.115 |
| RRIRYRPPRLPRPRPRPWRCPRP | 2.33 |
| RRIRWRPPRLPRPRPRPVILPRP | -0.208 |
| RRIRWRPPRLPRPRPRPRMIPRP | 0.693 |
| RRIRERPPRLPRPRPRPNRDPRP | -0.192 |
| RRIRMRPPRLPRPRPRPDGKPRP | 0.322 |
| RRIRVRPPRLPRPRPRPFIFPRP | -0.177 |
| RRIRFRPPRLPRPRPRPRCVPRP | -0.0244 |
| RRIRIRPPRLPRPRPRPIYYPRP | -0.539 |
| RRIRPRPPRLPRPRPRPSKDPRP | -0.451 |
| RRIRGRPPRLPRPRPRPYGRPRP | 0.047 |
| RRIRDRPPRLPRPRPRPVSWPRP | 1.13 |

| Sequence | shrunken log2 fold change |
| --- | --- |
| RRIRWRPPRLPRPRPRPWIKPRP | -0.203 |
| RRIRIRPPRLPRPRPRPSPNPRP | -0.735 |
| RRIRNRPPRLPRPRPRPTVAPRP | 0.351 |
| RRIRRRPPRLPRPRPRPFAEPRP | 0.61 |
| RRIRKRPPRLPRPRPRPQYCPRP | -0.0171 |
| RRIRARPPRLPRPRPRPEQAPRP | 0.759 |
| RRIRDRPPRLPRPRPRPRVTPRP | -0.0173 |
| RRIRQRPPRLPRPRPRPASYPRP | -0.121 |
| RRIRQRPPRLPRPRPRPQVDPRP | -0.0137 |
| RRIRIRPPRLPRPRPRPLKWPRP | -0.535 |
| RRIRWRPPRLPRPRPRPPMNPRP | -0.0715 |
| RRIRVRPPRLPRPRPRPYYCPRP | -0.513 |
| RRIRFRPPRLPRPRPRPYKKPRP | -0.415 |
| RRIRKRPPRLPRPRPRPEYMPRP | 0.264 |
| RRIRQRPPRLPRPRPRPLLKPRP | -0.321 |
| RRIRSRPPRLPRPRPRPRDQPRP | -0.0856 |
| RRIRVRPPRLPRPRPRPLNGPRP | 0.103 |
| RRIRFRPPRLPRPRPRPPFSPRP | -0.0847 |
| RRIRGRPPRLPRPRPRPFKQPRP | 0.13 |
| RRIRQRPPRLPRPRPRPNSRPRP | -0.0312 |
| RRIRVRPPRLPRPRPRPYTQPRP | -0.171 |
| RRIRWRPPRLPRPRPRPLASPRP | 0.26 |
| RRIRNRPPRLPRPRPRPGCKPRP | -0.00214 |
| RRIRQRPPRLPRPRPRPHEGPRP | -0.0113 |
| RRIRMRPPRLPRPRPRPMCSPRP | -0.00161 |

| Sequence | shrunken log2 fold change |
| --- | --- |
| RRIRSRPPRLPRPRPRPSLDPRP | -0.0696 |
| RRIRFRPPRLPRPRPRPGVCPRP | 0.307 |
| RRIRIRPPRLPRPRPRPLAIPRP | -1.11 |
| RRIRGRPPRLPRPRPRPHWGPRP | 0.247 |
| RRIRDRPPRLPRPRPRPHSIPRP | 0.0345 |
| RRIRMRPPRLPRPRPRPDVGPRP | 0.0278 |
| RRIRLRPPRLPRPRPRPAFPPRP | 0.0371 |
| RRIRHRPPRLPRPRPRPERDPRP | 0.155 |
| RRIRYRPPRLPRPRPRPFIEPRP | -1.2 |
| RRIRIRPPRLPRPRPRPCGNPRP | 0.00902 |
| RRIRNRPPRLPRPRPRPNEFPRP | -0.692 |
| RRIRARPPRLPRPRPRPQSRPRP | -0.112 |
| RRIRYRPPRLPRPRPRPEIVPRP | -0.00224 |
| RRIRYRPPRLPRPRPRPVACPRP | -0.187 |
| RRIRPRPPRLPRPRPRPTLMPRP | 0.227 |
| RRIRLRPPRLPRPRPRPMAVPRP | -0.0225 |
| RRIRWRPPRLPRPRPRPKAFPRP | -0.0585 |
| RRIRHRPPRLPRPRPRPIHLPRP | -0.541 |
| RRIRARPPRLPRPRPRPMKRPRP | 0.223 |
| RRIRLRPPRLPRPRPRPNGWPRP | 0.044 |
| RRIRYRPPRLPRPRPRPVICPRP | -0.0887 |
| RRIRCRPPRLPRPRPRPMQFPRP | -0.113 |
| RRIRKRPPRLPRPRPRPTVCPRP | 0.765 |
| RRIRMRPPRLPRPRPRPWNPPRP | 0.12 |
| RRIRWRPPRLPRPRPRPNMFPRP | -0.0911 |

| Sequence | shrunken log2 fold change |
| --- | --- |
| RRIRFRPPRLPRPRPRPISFPRP | -0.0661 |
| RRIRFRPPRLPRPRPRPHGKPRP | -0.0579 |
| RRIRWRPPRLPRPRPRPEDLPRP | -0.0249 |
| RRIRGRPPRLPRPRPRPKTRPRP | 0.884 |
| RRIRVRPPRLPRPRPRPRYMPRP | -0.528 |
| RRIRHRPPRLPRPRPRPMYTPRP | 0.588 |
| RRIRGRPPRLPRPRPRPLEAPRP | 1.44 |
| RRIRGRPPRLPRPRPRPVRGPRP | 0.866 |
| RRIRRRPPRLPRPRPRPMAFPRP | 0.024 |
| RRIRLRPPRLPRPRPRPVDHPRP | -0.0221 |
| RRIRHRPPRLPRPRPRPEAQPRP | -0.00183 |
| RRIRERPPRLPRPRPRPCCRPRP | 0.0107 |
| RRIRWRPPRLPRPRPRPKACPRP | 0.105 |
| RRIRCRPPRLPRPRPRPRHFPRP | -0.374 |
| RRIRVRPPRLPRPRPRPGFKPRP | -0.0945 |
| RRIRARPPRLPRPRPRPCPYPRP | -0.359 |
| RRIRTRPPRLPRPRPRPWGNPRP | -0.602 |
| RRIRVRPPRLPRPRPRPFWCPRP | -0.121 |
| RRIRERPPRLPRPRPRPPHPPRP | -0.0298 |
| RRIRQRPPRLPRPRPRPCWNPRP | -0.13 |
| RRIRNRPPRLPRPRPRPLEHPRP | -0.0225 |
| RRIRSRPPRLPRPRPRPATFPRP | -0.366 |
| RRIRTRPPRLPRPRPRPALYPRP | 0.0598 |
| RRIRPRPPRLPRPRPRPRGKPRP | -0.0806 |
| RRIRQRPPRLPRPRPRPLDAPRP | 0.109 |
